Measurements from article PMC9329948, “Surface-Enhanced Carboxyphenyl Diazonium Functionalized Screen-Printed Carbon Electrode for the Screening of Tuberculosis in Sputum Samples”.

Assays:
MPT64 antigen [1] = target: T1, MPT64 antigen (Mycobacterium tuberculosis, UniProt P9WIN9 24-228); experiment: ELONA; 5 uM aptamer; antigen coated at 5 ug/mL; p < 0.0001 vs control; ELONA: antigen coated in 0.06 M carbonate pH 9.6, 3% BSA block, aptamer 2 h at room temperature, 0.01 M PBS washes; aptamer/electrode binding buffer 20 mM Tris-HCl pH 7.4, 150 mM NaCl, 2 mM MgCl2, 2 mM KCl, 2 mM CaCl2, room temperature; conditions: protein: recombinant; label: biotin
CFP10 antigen [2] = target: T2, CFP10 antigen (Mycobacterium tuberculosis, UniProt P9WNK5 2-100); experiment: ELONA; no significant difference from aptamer-alone control; ELONA: antigen coated in 0.06 M carbonate pH 9.6, 3% BSA block, aptamer 2 h at room temperature, 0.01 M PBS washes; aptamer/electrode binding buffer 20 mM Tris-HCl pH 7.4, 150 mM NaCl, 2 mM MgCl2, 2 mM KCl, 2 mM CaCl2, room temperature; conditions: protein: recombinant; label: biotin
CFP10 antigen [3] = target: T2, CFP10 antigen; experiment: amperometric sandwich aptasensor; selectivity test; read-out also needs anti-MPT64 antibody; ELONA: antigen coated in 0.06 M carbonate pH 9.6, 3% BSA block, aptamer 2 h at room temperature, 0.01 M PBS washes; aptamer/electrode binding buffer 20 mM Tris-HCl pH 7.4, 150 mM NaCl, 2 mM MgCl2, 2 mM KCl, 2 mM CaCl2, room temperature; conditions: protein: recombinant
MPT64 antigen [4] = target: T1, MPT64 antigen; experiment: amperometric sandwich aptasensor; HRP anti-MPT64 antibody detection; LOD 1.11 ng/mL, linear 5-200 ng/mL; ELONA: antigen coated in 0.06 M carbonate pH 9.6, 3% BSA block, aptamer 2 h at room temperature, 0.01 M PBS washes; aptamer/electrode binding buffer 20 mM Tris-HCl pH 7.4, 150 mM NaCl, 2 mM MgCl2, 2 mM KCl, 2 mM CaCl2, room temperature; conditions: protein: recombinant

T2 sequence (P9WNK5 2-100): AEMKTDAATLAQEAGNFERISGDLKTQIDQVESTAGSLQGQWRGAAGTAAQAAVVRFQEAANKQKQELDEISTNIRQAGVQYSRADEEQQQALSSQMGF
T1 sequence (P9WIN9 24-228): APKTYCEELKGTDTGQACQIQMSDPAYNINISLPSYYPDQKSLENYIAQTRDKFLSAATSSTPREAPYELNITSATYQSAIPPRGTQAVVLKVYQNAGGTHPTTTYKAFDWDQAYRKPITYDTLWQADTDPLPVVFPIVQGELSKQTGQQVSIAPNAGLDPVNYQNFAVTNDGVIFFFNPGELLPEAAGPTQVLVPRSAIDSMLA

Binder | binding result (MPT64 antigen [1]) | binding result (CFP10 antigen [2]) | binding result (CFP10 antigen [3]) | binding result (MPT64 antigen [4])
TTTTTTTTTTGGGAGCTGATGTCGCATGGGTTTTGATCACATGA (ssDNA, biotin, position not stated) [MPT64 aptamer, biotinylated (ELONA)] | binds | no binding |  | 
TTTTTTTTTTGGGAGCTGATGTCGCATGGGTTTTGATCACATGA (ssDNA, 5' AmMC6) [MPT64 aptamer, 5'-amino (electrode)] |  |  | no binding | binds
